Assay results: US20130084292A1

Target: Gp96 receptor (heat shock protein 90 kDa beta (Grp94 or Gp96), member 1 [Homo sapiens]) (Homo sapiens) (UniProt P14625)
Test: cell-based or functional assay

Chain of Gp96 receptor (heat shock protein 90 kDa beta (Grp94 or Gp96), member 1 [Homo sapiens]) (Homo sapiens) (P14625 22-803 limits assumed): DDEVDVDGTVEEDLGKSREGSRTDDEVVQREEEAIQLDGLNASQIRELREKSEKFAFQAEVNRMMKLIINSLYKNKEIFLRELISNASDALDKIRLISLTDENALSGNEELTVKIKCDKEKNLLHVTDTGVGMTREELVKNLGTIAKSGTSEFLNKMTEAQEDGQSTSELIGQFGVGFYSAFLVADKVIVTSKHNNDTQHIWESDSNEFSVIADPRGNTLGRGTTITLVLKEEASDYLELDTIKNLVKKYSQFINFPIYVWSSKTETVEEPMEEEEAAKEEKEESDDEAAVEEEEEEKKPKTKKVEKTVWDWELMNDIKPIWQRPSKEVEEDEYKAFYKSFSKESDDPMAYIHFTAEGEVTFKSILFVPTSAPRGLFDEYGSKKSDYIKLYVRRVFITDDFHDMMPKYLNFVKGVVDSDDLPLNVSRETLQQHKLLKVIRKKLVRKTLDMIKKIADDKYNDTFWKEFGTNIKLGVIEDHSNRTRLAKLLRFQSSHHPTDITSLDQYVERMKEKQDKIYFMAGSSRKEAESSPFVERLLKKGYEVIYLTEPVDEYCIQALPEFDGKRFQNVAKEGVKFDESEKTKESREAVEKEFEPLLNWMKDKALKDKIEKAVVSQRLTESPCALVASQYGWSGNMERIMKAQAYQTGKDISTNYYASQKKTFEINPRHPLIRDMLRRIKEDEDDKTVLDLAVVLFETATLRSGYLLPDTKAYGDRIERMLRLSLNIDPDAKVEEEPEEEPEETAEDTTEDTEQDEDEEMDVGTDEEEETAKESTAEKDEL

OmpA outer membrane protein of E. coli AIEC strain LF82 (from UniProt P0A910 22-346) (ligand)
invasion level of the LF82-ΔompA mutant on IEC pretreated with LF82 OMVs, relative to strain LF82 taken as 100%: 85.2% | residual invasion level of the LF82-ΔompA mutant in Intestine-407 cells compared to wild-type strain LF82 taken as 100%: 56.3%
